This data set deals with the molecule itself. The data set can be described thus: smTIRF single-molecule photobleaching (subunit counting); hHv1-G199L-TFP particles at the surface of live HEK293T cells; bleaching steps of TFP counted.

B1: hHv1-G199L-TFP (natural protein, human, UniProt Q96D96-1 1-273, looked up)
chain: MATWDEKAVTRRAKVAPAERMSKFLRHFTVVGDDYHAWNINYKKWENEEEEEEEEQPPPTPVSGEEGRAAAPDVAPAPGPAPRAPLDFRGMLRKLFSSHRFQVIIICLVVLDALLVLAELILDLKIIQPDKNNYAAMVFHYMSITILVFFMMEIIFKLFVFRLEFFHHKFEILDAVVVVVSFILDIVLLFQEHQFEALLLLILLRLWRVARIINGIIISVKTRSERQLLRLKQMNVQLAAKIQHLEFSCSEKEQEIERLNKLLRQHGLLGEVN
notes: also used for the patch-clamp (functional) rows of hHv1-G199L; source: HEK293T, transfected, on live cells; not shown: teal fluorescent protein (TFP, via a 13-residue linker), C-terminal, kept
A word on the stoichiometry N: it is a count of units in the complex or per binding partner. As for B1, the “stoichiometry N” value was 2 subunits per particle.

These data come from paper PMC8219737, “Direct activation of the proton channel by albumin leads to human sperm capacitation and sustained release of inflammatory mediators by neutrophils” (Nature Communications, 2021).
